In PMC3817844 (Angewandte Chemie (International ed. in English), 2013):

Assays:
AlleyCat; AlleyCat7 = AlleyCat; AlleyCat7 (Gallus gallus, UniProt P62149, A129T/A89Q/F93E/H108I/I86L/L113R/M125L/M145R); assay: inhibition of Kemp elimination; format: biochemical
Glu92 [1] = target: Glu92 (UniProt position 93, EQFRVEDKDGN); assay: kinetics; settings: Ca2+-bound (active) protein; the protein is inactive without Ca2+
Glu92 [2] = target: Glu92 (UniProt position 93, EAFRVEDKDGN); assay: kinetics; settings: Ca2+-bound (active) protein, the protein is inactive without Ca2+

Molecule	pKa (Glu92 [2])	further results
O=[N+]([O-])c1ccc2[nH]nnc2c1 [5-NBT, 5-nitro-benzotriazole]	–	Ki (AlleyCat; AlleyCat7): 18 µM
AlleyCat7 (calmodulin C-terminal domain with round 7 mutations) (Gallus gallus; F92E;M144R;H107I;L112R;I85L;A128T;M124L;A88Q)	–	pKa (Glu92 [1]): 6.39±0.02
AlleyCat (calmodulin C-terminal domain F92E) (Gallus gallus; F92E)	–	pKa (Glu92 [2]; cited from earlier work): 6.9±0.1
CaM F92E 5R (round 5 variant), affinity tag removed (Gallus gallus; F92E;M144R;H107I;L112R;I85L;A128T)	6.47±0.03	–
CaM F92E 5R (round 5 variant), with affinity tag (Gallus gallus; F92E;M144R;H107I;L112R;I85L;A128T)	6.60±0.02	–
CaM F92E (full-length calmodulin F92E) (Gallus gallus; F92E)	6.98±0.05	–
CaM F92E round 1 variant (F92E/M144R) (Gallus gallus; F92E;M144R)	7.21±0.06	–
CaM F92E round 2 variant (F92E/M144R/H107I), tag removed (Gallus gallus; F92E;M144R;H107I)	6.73±0.03	–
CaM F92E round 3 variant (F92E/M144R/H107I/L112R) (Gallus gallus; F92E;M144R;H107I;L112R)	6.70±0.03	–
CaM F92E round 4 variant (F92E/M144R/H107I/L112R/I85L) (Gallus gallus; F92E;M144R;H107I;L112R;I85L)	6.93±0.03	–
CaM F92E round 6 variant (Gallus gallus; F92E;M144R;H107I;L112R;I85L;A128T;M124L)	6.67±0.01	–
CaM F92E round 7 variant, tag removed (Gallus gallus; F92E;M144R;H107I;L112R;I85L;A128T;M124L;A88Q)	–	pKa (Glu92 [1]): 6.43±0.02
